From US20070207967A1, “Peptide Inhibitors of Matrix Metalloproteinase Activity” (CTT CANCER TARGETING TECHNOLOGIES OY, priority 2004, published 2007)

Molecular target: β2 integrin on THP-1 cells (human) (UniProt P05107)
Assay: THP-1 cell binding to immobilized KIM127 (competitor) with C domain 50 µg/ml

β2 integrin on THP-1 cells (human), sequence (P05107 23-769): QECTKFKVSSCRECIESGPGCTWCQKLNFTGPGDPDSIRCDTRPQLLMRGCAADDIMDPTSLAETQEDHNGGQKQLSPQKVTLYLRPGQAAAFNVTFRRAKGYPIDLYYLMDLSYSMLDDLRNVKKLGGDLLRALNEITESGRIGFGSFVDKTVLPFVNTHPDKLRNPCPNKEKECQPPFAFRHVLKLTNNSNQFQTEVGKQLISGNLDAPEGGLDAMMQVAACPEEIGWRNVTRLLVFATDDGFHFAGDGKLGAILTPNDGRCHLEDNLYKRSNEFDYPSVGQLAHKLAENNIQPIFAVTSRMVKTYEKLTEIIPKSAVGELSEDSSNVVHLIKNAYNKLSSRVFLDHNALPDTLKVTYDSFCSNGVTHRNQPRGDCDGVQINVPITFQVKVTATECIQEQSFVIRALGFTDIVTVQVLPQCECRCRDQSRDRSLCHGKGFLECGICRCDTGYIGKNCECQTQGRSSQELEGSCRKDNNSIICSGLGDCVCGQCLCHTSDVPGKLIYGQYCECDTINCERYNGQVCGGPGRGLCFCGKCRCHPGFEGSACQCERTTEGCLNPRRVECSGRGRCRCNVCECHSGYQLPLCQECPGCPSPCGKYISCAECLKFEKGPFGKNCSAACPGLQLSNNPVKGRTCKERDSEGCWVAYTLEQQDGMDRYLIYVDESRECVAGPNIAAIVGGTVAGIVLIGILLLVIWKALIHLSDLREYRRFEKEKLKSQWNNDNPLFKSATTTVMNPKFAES

% inhibition of THP-1 cell binding to KIM127: 40%
Substance: recombinant MMP-9 C-terminal hemopexin-like domain (Asp494-Asp688) (from UniProt P14780 513-707)
